Measured values from US20120316071A1 (published 2012).
Where a chain is given by its changes, count along the chain named. Names may count otherwise.

B1: Fab VH1-46_IGHD6-6*01_IGHJ1*01 S102A/S103P/S104F/H111F/I51A/N52L/S54T/G56H (APFF ALTH) & L6_IGKJ1*01 (Fab, V domains shown)
VH: QVQLVQSGAEVKKPGASVKVSCKASGYTFTSYYMHWVRQAPGQGLEWMGIALPTGHSTSYAQKFQGRVTMTRDTSTSTVYMELSSLRSEDTAVYYCAREEYAPFSAEYFQFWGQGTLVTVSS
VL: not shown
notes: Fab made in E. coli; CH1 with tags and kappa CL are not included
B2: Fab VH1-46_IGHD6-6*01_IGHJ1*01 S102A/S103P/S104F/H111F/I51H/N52L/S54T/G56H (APFF HLTH) & L6_IGKJ1*01 (Fab, V domains shown)
VH: B1 VH with A51H
VL: not shown
notes: as for B1
B3: Fab VH1-46_IGHD6-6*01_IGHJ1*01 S102A/S103P/S104F/H111F/I51G/N52L/S54T/G56H (APFF GLTH) & L6_IGKJ1*01 (Fab, V domains shown)
VH: B1 VH with A51G
VL: not shown
notes: as for B1
B4: Fab VH1-46_IGHD6-6*01_IGHJ1*01 S102A/S103P/S104F/H111F/I51E/N52L/S54T/G56H (APFF ELTH) & L6_IGKJ1*01 (Fab, V domains shown)
VH: B1 VH with A51E
VL: not shown
notes: as for B1
B5: Fab VH5-51_IGHD5-18*01>3_IGHJ4*01 G100K/G104T (H:KT) & V3-4_IGLJ1*01 T31A (Fab, V domains shown)
VH: EVQLVQSGAEVKKPGESLKISCKGSGYSFTSYWIGWVRQMPGKGLEWMGIIYPGDSDTRYSPSFQGQVTISADKSISTAYLQWSSLKASDTAMYYCARRKYSYTYDYFDYWGQGTLVTVSS
VL: QTVVTQEPSFSVSPGGTVTLTCGLSSGSVSASYYPSWYQQTPGQAPRTLIYSTNTRSSGVPDRFSGSILGNKAALTITGAQADDESDYYCVLYMGSGISYVFGTGTKVTVL
notes: Fab expressed in E. coli; Plasmid A adds CH1 with His6 and Flag tags to the heavy chain; Plasmid E adds lambda CL to the light chain; also called G100K/G104T & T31A
B6: Fab VH5-51_IGHD5-18*01>3_IGHJ4*01 G100K/G104T (H:KT) & V3-4_IGLJ1*01 Y34A (Fab, V domains shown)
VH: B5 VH
VL: B5 VL with A31T, Y34A
notes: Fab expressed in E. coli; Plasmid A adds CH1 with His6 and Flag tags to the heavy chain; Plasmid E adds lambda CL to the light chain; also called G100K/G104T & Y34A
B7: Fab VH5-51_IGHD5-18*01>3_IGHJ4*01 G100K/G104T (H:KT) & V3-4_IGLJ1*01 Y33A (Fab, V domains shown)
VH: B5 VH
VL: B5 VL with A31T, Y33A
notes: Fab expressed in E. coli; Plasmid A adds CH1 with His6 and Flag tags to the heavy chain; Plasmid E adds lambda CL to the light chain; also called G100K/G104T & Y33A
B8: Fab VH5-51_IGHD5-18*01>3_IGHJ4*01 G100K/G104T (H:KT) & V3-4_IGLJ1*01 V29A (Fab, V domains shown)
VH: B5 VH
VL: B5 VL with V29A, A31T
notes: Fab expressed in E. coli; Plasmid A adds CH1 with His6 and Flag tags to the heavy chain; Plasmid E adds lambda CL to the light chain; also called G100K/G104T & V29A
B9: Fab VH1-46_IGHD6-6*01_IGHJ1*01 & L6_IGKJ1*01 (Fab, V domains shown)
VH: B1 VH with A51I, L52N, T54S, H56G, A102S, P103S, F104S, F111H
VL: not shown
notes: Tested as a Fab made in E. coli; VH was cloned into Plasmid A (CH1 constant region, His6 and Flag tags) and the kappa VL into Plasmid C (kappa CL); also called parent "Hit" Fab; parental
B10: Fab VH1-46_IGHD6-6*01_IGHJ1*01 H111A & L6_IGKJ1*01 (Fab, V domains shown)
VH: B1 VH with A51I, L52N, T54S, H56G, A102S, P103S, F104S, F111A
VL: not shown
notes: Heavy chain CDR3 alanine mutant of the parent Fab; Fab format with CH1, kappa CL, His6 and Flag tags from the expression plasmids
B11: Fab VH1-46_IGHD6-6*01_IGHJ1*01 S105A & L6_IGKJ1*01 (Fab, V domains shown)
VH: B1 VH with A51I, L52N, T54S, H56G, A102S, P103S, F104S, S105A, F111H
VL: not shown
notes: as for B10
B12: Fab VH1-46_IGHD6-6*01_IGHJ1*01 S104A & L6_IGKJ1*01 (Fab, V domains shown)
VH: B1 VH with A51I, L52N, T54S, H56G, A102S, P103S, F104A, F111H
VL: not shown
notes: as for B10
B13: Fab VH1-46_IGHD6-6*01_IGHJ1*01 S103A & L6_IGKJ1*01 (Fab, V domains shown)
VH: B1 VH with A51I, L52N, T54S, H56G, A102S, P103A, F104S, F111H
VL: not shown
notes: as for B10
B14: Fab VH1-46_IGHD6-6*01_IGHJ1*01 S102A & L6_IGKJ1*01 (Fab, V domains shown)
VH: B1 VH with A51I, L52N, T54S, H56G, P103S, F104S, F111H
VL: not shown
notes: as for B10
B15: Fab VH1-46_IGHD6-6*01_IGHJ1*01 E100A & L6_IGKJ1*01 (Fab, V domains shown)
VH: B1 VH with A51I, L52N, T54S, H56G, E100A, A102S, P103S, F104S, F111H
VL: not shown
notes: as for B10
B16: Fab VH1-46_IGHD6-6*01_IGHJ1*01 & L6_IGKJ1*01 (Fab, V domains shown)
VH: B1 VH with A51I, L52N, T54S, H56G, A102S, P103S, F104S, F111H
VL: not shown
notes: Germline 'Hit' Fab; The VH was cloned into Plasmid A (CH1, His6 and Flag tags) and the kappa VL into Plasmid C (kappa CL); expressed in E. coli; also called Parent; parental

Biological target: T1, Recombinant Human DLL4 (delta-like protein 4) (human, UniProt Q9NR61 27-529)
T1 construct: Bought recombinant human DLL4 (R&D Systems Cat#1506-D4/CF), coated on the plate; also called rHuman DLL4; Delta-like 4
Experiment: 96-well plate ECL (MSD) binding assay on coated DLL4, 10 nM Fab

Point of comparison: B1, “ECL signal” value 143000. Against it:
- B2 — higher, 155000
- B3 — lower, 131000
- B4 — higher, 167000

Biological target: T2, Recombinant Human DLL4 (R&D Systems Cat#1506-D4/CF) (human, UniProt Q9NR61 27-524)
T2 construct: Bought recombinant protein; also called delta-like protein 4; Delta-like 4
Experiment: ECL (Meso Scale Discovery) multispot binding assay, DLL4 immobilised, Fab at 100 nM

Point of comparison: B5, “ECL signal” value 13500. Against it:
- B6 — lower, 2200
- B7 — lower, 7700
- B8 — lower, 9320

Biological target: T3, Recombinant Human DLL4 (human, UniProt Q9NR61 27-524)
T3 construct: Bought recombinant protein (R&D Systems Cat#1506-D4/CF); also called delta-like protein 4; Delta-like 4
Experiment: ECL (MSD) 96-well plate assay; plate coated with 30 ug/mL DLL4; 0.02 uM Fab

Point of comparison: B12, “ECL signal” value 163000. Against it:
- B9 — lower, 8710
- B10 — lower, 11600
- B11 — lower, 1100
- B13 — lower, 11600
- B14 — lower, 19100
- B15 — lower, 1300

Point of comparison: B9, Signal/Noise 23. Against it:
- B10 — higher, 30.6
- B11 — lower, 2.9
- B12 — higher, 431
- B13 — higher, 30.5
- B14 — higher, 50.3
- B15 — lower, 3.4

Biological target: T1, Recombinant Human DLL4 (delta-like …)
Experiment: ELISA on coated DLL4, 100 nM Fab

Point of comparison: B1, “ELISA signal” value 0.62. Against it:
- B2 — higher, 0.647
- B3 — lower, 0.407
- B4 — higher, 0.995

Biological target: T4, Recombinant Human DLL4 (delta-like protein 4) (human, UniProt Q9NR61 27-529)
T4 construct: Bought recombinant protein (R&D Systems Cat#1506-D4/CF); also called rHuman DLL4; Delta-like 4
Experiment: ECL (MSD) multispot assay; Fab 0.1 µM

For B16, the “ECL signal” value was 7000.

B16 showed a Signal/Noise of 40.9.

Biological target: T4, Recombinant Human DLL4 (delta-like …)
Experiment: ECL (MSD) multispot assay; Fab 0.01 µM

With B16 the “ECL signal” value was 1030.

B16 showed a Signal/Noise of 4.9.

Biological target: T3, Recombinant Human DLL4
Experiment: ECL (MSD) 96-well plate assay; plate coated with 15 ug/mL DLL4; 0.004 uM Fab

Point of comparison: B10, “ECL signal” value 5020. Against it:
- B9 — lower, 4260
- B11 — lower, 181
- B12 — lower, 3610
- B13 — higher, 5150
- B14 — higher, 10300
- B15 — lower, 536

Point of comparison: B15, Signal/Noise 3.7. Against it:
- B9 — higher, 29.2
- B10 — higher, 34.4
- B11 — lower, 1.2
- B12 — higher, 24.8
- B13 — higher, 35.3
- B14 — higher, 70.8
